{
  "source": "patent US20130144035A1",
  "about": "“COMPOSITIONS AND METHODS FOR LEUKOCYTE-TARGETING MULTI-VALENT IMAGING PROBES” (priority 2010, published 2013)",
  "key": {"[1]": {"test": "Partition coefficient (octanol/water)", "format": "physicochemical", "conditions": "average of three measurements", "procedure": "Freshly HPLC purified cFLFLF-PEGn-KTKPPR-^99mTc 8 or 9 (˜350 kBq) in 500 μL of water was mixed with 500 μLof octanol in an Eppendorf microcentrifuge tube. The tube was sonicated for […] and then centrifuged at 4,000 rpm for […] (Fisher Scientific Marathon Micro-A). Aliquots (100 μL) of octanol and aqueous layers were carefully separated and radioactivity of samples were counted. Log P is derived as the log of the ratio of radioactivity in octonol to radioactivity in water. The measurement was repeated in triplicate and data presented is the average of three measurements."}, "[2]": {"test_system": "isolated human neutrophils (formyl peptide and tuftsin receptors)", "test": "Neutrophil binding, saturation assay", "conditions": "for Kd: TNF-α treated human neutrophils, 25° C., 90 min, saturation assay", "procedure": "Human tumor necrosis factor-α (TNF-α) was procured from Perpotech, and fMLF was purchased from Sigma. Aliquots of both samples were taken (TNF-α, 10 U/mL, and fMLF, 10 mM) and stored at −20° C. For every assay the solutions were thawed to ambient temperature and freshly diluted with […] (HA) buffer before use. Multiscreen high-throughput screening (HTS) with glass fiber filter (FC) 96-well plates, type C, with […] glass filters were purchased from Millipore. Filtration from 96-well plates was performed under vacuum on a Brandel filtration device. The membranes from each well were collected by punching with the Millipore Multiscreen punching instrument. The radioactivity from ^99mTc-bound ligand was measured with either Minaxi (Packard), Autogamma 5000 series (Packard), or Wallac 1420 Wizard (Perkin-Elmer) γ-counters. Radioactivity was measured for 1 min per sample and was not corrected for decay.\nHuman neutrophils were prepared from normal heparinized (10 U/mL) venous blood by a 1-step Ficoll-Hypaque separation procedure (15, 16), yielding approximately 98% neutrophils; greater than 95% viable as determined with trypan blue containing less than 50 pg/mL of endotoxin. After separation, neutrophils were washed with Hank's balanced salt solution with heparin (10 U/mL) 3 times. After the third wash, neutrophils were resuspended in HA buffer, which was Hank's balanced salt solution supplemented with 0.1% human albumin (Bayer Healthcare). Neutrophil experiments were completed in HA buffer.\nFreshly isolated human neutrophils (4×10^6 cells/mL) were treated with TNF-α(10 U/mL, Peprotech) twenty minutes prior to binding studies and transferred to a 96 well plate (Multiscreen® HTS FC by Millipore, Billerica, Mass. 1.2 μm glass filter type C, 50.0 μL, 2.0×10^5 cells/well). […] The bounded radioactivity remaining on the membranes was measured in a gamma counter. Specific binding was calculated as the difference between total binding and nonspecific binding at the highest concentration. […]"}, "[3]": {"test_system": "PMA-induced ear inflammation (neutrophil accumulation)", "test": "SPECT/CT imaging in mouse ear inflammation model (PMA)", "format": "in vivo", "conditions": "27 hours after PMA challenge, 3 hours post injection", "procedure": "A female FVB mouse, 5 month old, with left ear inflammatory lesion was used to preliminarily assess the ability of the cFLFLF-PEG12-TKPPR-^99mTc to detect inflammation as a result of neutrophils migration and accumulation. The animal model is similar to that described by Gross et al. (19). Topical application of PMA (2.5 μg in 20 μl DMSO) onto the left earlobe induces acute dermatitis, manifested by local swelling, erythema and infiltration of neutrophils (20, 21). The right ear served as control and received only DMSO (vehicle). The SPECT/CT imaging was correlated with myeloperoxidase (MPO) activity determined by non-invasive bioluminal-bioluminescence imaging (19).\nTwenty-four hours after PMA challenge, 3.7 MBq […] of cFLFLF-PEG12-TKPPR-^99mTc in 200 μl of saline was administered via tail vein. […] All SPECT images were corrected for radioactivity decay but not for gamma ray attenuation.\nCo-registration of SPECT and CT images was performed using ASIPRO software (Siemens Medical Solutions USA, Inc., Knoxyille, Tenn.) and a transformation matrix previously obtained with a dual modality phantom. To characterize the accumulation of the tracer in the ears, volume-of-interest (VOI) analysis was performed to identify the number of detected counts originating in the ears. […] This activity was expressed as percentage of the injected dose per mouse body mass (% ID/g)."}, "[4]": {"test": "Biodistribution", "format": "in vivo", "conditions": "normal mice, 18 hours post injection", "procedure": "Body distribution of radioactivity was determined in control (n=3) mice 18 h after injection of tracer. After a single blood sample had been taken from the tail vein, mice were euthanized by deep halothane anesthesia. The organs and tissues (ear, heart, lungs, muscle, bone, liver, kidney, spleen, small intestine, and stomach) were collected, rinsed with PBS, wiped with filter paper and weighed in a pre-weighed vial. The radioactivity of each sample was measured in a γ-well counter and decay-corrected back to the time of tracer injection. Biodistribution values are expressed as a percentage of the injected dose (% ID) and normalized by body and organ/tissue mass."}, "[5]": {"test": "Blood clearance", "format": "in vivo", "conditions": "mouse, whole blood, intravenous, control mice (n=3), tail vein injection, mono-exponential clearance; read-out: elimination half-life for blood clearance (T1/2)", "procedure": "Blood kinetics of cFLFLF-PEG12-TKPPR-^99mTc was studied in 3 control (non-inflamed) mice. Approximately 50 μL of blood from the contralateral tail vein were collected in capillary tubes at 15, 30, 45, 60, 120, and 180, 360 min after tracer injection (0.37-0.74 MBq). The capillary tubes were placed in a vial that was weighed beforehand and afterward. Activity in each blood sample was measured in a radioisotope calibrated well counter (CRC-15W, Capintec, Inc, NJ), decay corrected back to the time of tracer injection, normalized for injected dose and animal body weight, and expressed as % ID/g of blood."}, "[6]": {"test": "Serum stability", "format": "in vitro ADME", "conditions": "fetal bovine serum", "procedure": "Fifty microcuries of the cFLFLF-PEG12-TKPPR-^99mTc was added in to 100 μL of fetal bovine serum (Invitrogen, Grand Island, N.Y.). After incubation at 37° C. for 1, 3, and 6 hrs, aliquots of the mixture was filtered through a […] micro spin filter. The filtrates were analyzed by reverse-phase HPLC with a Bioscan Flow Count Radio-HPLC detector. All of newly formed γ-peaks besides the original cFLFLF-PEG12-TKPPR-^99mTc peak would be considered as degraded products."}, "[7]": {"conditions": "mouse, in vivo; cited from earlier work"}, "[8]": {"conditions": "mouse, in vivo; cited from earlier work", "remark": "listed apart in the source"}},
  "note": "Read-outs that look alike come from different tables or passages of the source. Square brackets hold non-standard residues; d marks the D form. Peptide text beside a SMILES is read from it. * marks the point of attachment. PEG12 = NCCOCCOCCOCCOCCOCCOCCOCCOCCOCCOCCOCCOCCC(=O)O; PEG4 = NCCOCCOCCOCCOCCC(=O)O; HYNIC = NNc1ccc(C(=O)*)cn1; X1 = O=C(/C=C/c1ccccc1)*",
  "data": [
    {"compound": "CC(C)C[C@@H](NC(=O)[C@H](Cc1ccccc1)NC(=O)[C@@H](CC(C)C)NC(=O)[C@H](Cc1ccccc1)NC(=O)/C=C/c1ccccc1)C(=O)N[C@@H](Cc1ccccc1)C(=O)NCCOCCOCCOCCOCCC(=O)N[C@@H](CCCCNC(=O)c1ccc(NN)nc1)C(=O)N[C@H](C(=O)N[C@@H](CCCCN)C(=O)N1CCC[C@H]1C(=O)N1CCC[C@H]1C(=O)N[C@@H](CCCNC(=N)N)C(=O)O)[C@@H](C)O", "note": "[ligand 8, cFLFLF-PEG4-TKPPR-^99mTc, metal not drawn] (X1-F[dL]F[dL]F[PEG4]K(HYNIC)TKPPR-OH)", "values": [
      {"measurement": "logP", "setting": "[1]", "value": -0.77},
      {"measurement": "Kd", "setting": "[2]", "value": 47.8, "unit": "nM"},
      {"measurement": "fold less potent than compound 9", "setting": "[2]; binding to human neutrophils, ratio of Kd", "value": "roughly 3 fold"}
    ]},
    {"compound": "CC(C)C[C@@H](NC(=O)[C@H](Cc1ccccc1)NC(=O)[C@@H](CC(C)C)NC(=O)[C@H](Cc1ccccc1)NC(=O)/C=C/c1ccccc1)C(=O)N[C@@H](Cc1ccccc1)C(=O)NCCOCCOCCOCCOCCOCCOCCOCCOCCOCCOCCOCCOCCC(=O)N[C@@H](CCCCNC(=O)c1ccc(NN)nc1)C(=O)N[C@H](C(=O)N[C@@H](CCCCN)C(=O)N1CCC[C@H]1C(=O)N1CCC[C@H]1C(=O)N[C@@H](CCCNC(=N)N)C(=O)O)[C@@H](C)O", "note": "[ligand 9, cFLFLF-PEG12-TKPPR-^99mTc, metal not drawn] (X1-F[dL]F[dL]F[PEG12]K(HYNIC)TKPPR-OH)", "values": [
      {"measurement": "logP", "setting": "[1]", "value": -0.89},
      {"measurement": "Kd", "setting": "[2]", "value": 15.1, "unit": "nM"},
      {"measurement": "accumulation of the tracer in the infected ear (left) vs. control ear", "setting": "[3]", "value": "about 3.15 folds"},
      {"measurement": "blood retaining", "setting": "[4]", "value": 1.2, "unit": "% ID"},
      {"measurement": "liver uptake", "setting": "[4]", "value": 5.3, "unit": "% ID"},
      {"measurement": "half-life", "setting": "[5]", "value": "~1.4", "unit": "h"},
      {"measurement": "stable in serum", "setting": "[6]; 37° C.", "value": "at least 6 hours"},
      {"measurement": "fragments of 99mTc labeled peptide by HPLC analysis of serum samples", "setting": "[6]; 37° C., 1, 3, and 6 hours", "value": "no appreciable fragments"}
    ]},
    {"compound": "cFLFLFK-PEG-^64Cu", "values": [
      {"measurement": "blood retaining", "setting": "[7]", "value": 0.2, "unit": "% ID"},
      {"measurement": "liver uptake", "setting": "[7]", "value": 1.5, "unit": "% ID"},
      {"measurement": "circulation time (T1/2)", "setting": "[8]", "value": 0.917, "unit": "h"}
    ]}
  ]
}
